Target: HMW-MAA (Homo sapiens, UniProt Q6UVK1)
Experiment: Competition assay to map the antigenic determinant on SK-MEL-28 cells
Format: binding
Parameters: from tissue; host or cells: human nevi, primary and metastatic melanoma lesions (frozen sections)
Conditions: biotinylated mAb VF1-TP34, competitor PP scFv C21
Protocol: FIG. 5. Spatial proximity of the determinant defined by scFv C21 and of that defined by mouse mAb VF1-TP34 on HMW-MAA^+ melanoma cells SK-MEL-28. Varying concentrations of mAb VF1-TP34 (-●-) (left panel) were mixed with biotinylated scFv C21 (0.25 μg/well). The mixture was then transferred to wells containing HMW-MAA^+ cells and incubated for 1 h at 4° C. Binding of antibodies was detected using SA-HRP. Results are expressed as % inhibition. Likewise, varying amounts of PP scFv C21 (-▴-) (right panel) were mixed with biotinylated mAb VF1-TP34 (40 ng/well). The mixture was then transferred to wells containing HMW-MAA^+ cells and incubated for 1 h at 4° C. […]
The ELISA to test the reactivity of soluble scFv antibodies with synthetic peptides and melanoma cells and of mouse immune sera with melanoma cells and with peptides was performed as described (Desai et al., Cancer Res 58:2417-2425, 1998; Desai et al., J Immunol 165:3275-3283, 2000; Matsui et al., J Immunol 139:2088-2095, 1987). Results are expressed as absorbance of optical density (O.D.) at 450 nm. The competition assay to map the antigenic determinant recognized by scFv C21 was performed by mixing biotinylated scFv C21 (0.25 μg/well) with two-fold dilutions of mouse mAb or scFv PP or by mixing biotinylated mAb (at an optimal amount giving absorbance, measured at 450 nm of 1.0) with two fold dilutions of scFv PP. […]

HMW-MAA, sequence (Q6UVK1 30-2322): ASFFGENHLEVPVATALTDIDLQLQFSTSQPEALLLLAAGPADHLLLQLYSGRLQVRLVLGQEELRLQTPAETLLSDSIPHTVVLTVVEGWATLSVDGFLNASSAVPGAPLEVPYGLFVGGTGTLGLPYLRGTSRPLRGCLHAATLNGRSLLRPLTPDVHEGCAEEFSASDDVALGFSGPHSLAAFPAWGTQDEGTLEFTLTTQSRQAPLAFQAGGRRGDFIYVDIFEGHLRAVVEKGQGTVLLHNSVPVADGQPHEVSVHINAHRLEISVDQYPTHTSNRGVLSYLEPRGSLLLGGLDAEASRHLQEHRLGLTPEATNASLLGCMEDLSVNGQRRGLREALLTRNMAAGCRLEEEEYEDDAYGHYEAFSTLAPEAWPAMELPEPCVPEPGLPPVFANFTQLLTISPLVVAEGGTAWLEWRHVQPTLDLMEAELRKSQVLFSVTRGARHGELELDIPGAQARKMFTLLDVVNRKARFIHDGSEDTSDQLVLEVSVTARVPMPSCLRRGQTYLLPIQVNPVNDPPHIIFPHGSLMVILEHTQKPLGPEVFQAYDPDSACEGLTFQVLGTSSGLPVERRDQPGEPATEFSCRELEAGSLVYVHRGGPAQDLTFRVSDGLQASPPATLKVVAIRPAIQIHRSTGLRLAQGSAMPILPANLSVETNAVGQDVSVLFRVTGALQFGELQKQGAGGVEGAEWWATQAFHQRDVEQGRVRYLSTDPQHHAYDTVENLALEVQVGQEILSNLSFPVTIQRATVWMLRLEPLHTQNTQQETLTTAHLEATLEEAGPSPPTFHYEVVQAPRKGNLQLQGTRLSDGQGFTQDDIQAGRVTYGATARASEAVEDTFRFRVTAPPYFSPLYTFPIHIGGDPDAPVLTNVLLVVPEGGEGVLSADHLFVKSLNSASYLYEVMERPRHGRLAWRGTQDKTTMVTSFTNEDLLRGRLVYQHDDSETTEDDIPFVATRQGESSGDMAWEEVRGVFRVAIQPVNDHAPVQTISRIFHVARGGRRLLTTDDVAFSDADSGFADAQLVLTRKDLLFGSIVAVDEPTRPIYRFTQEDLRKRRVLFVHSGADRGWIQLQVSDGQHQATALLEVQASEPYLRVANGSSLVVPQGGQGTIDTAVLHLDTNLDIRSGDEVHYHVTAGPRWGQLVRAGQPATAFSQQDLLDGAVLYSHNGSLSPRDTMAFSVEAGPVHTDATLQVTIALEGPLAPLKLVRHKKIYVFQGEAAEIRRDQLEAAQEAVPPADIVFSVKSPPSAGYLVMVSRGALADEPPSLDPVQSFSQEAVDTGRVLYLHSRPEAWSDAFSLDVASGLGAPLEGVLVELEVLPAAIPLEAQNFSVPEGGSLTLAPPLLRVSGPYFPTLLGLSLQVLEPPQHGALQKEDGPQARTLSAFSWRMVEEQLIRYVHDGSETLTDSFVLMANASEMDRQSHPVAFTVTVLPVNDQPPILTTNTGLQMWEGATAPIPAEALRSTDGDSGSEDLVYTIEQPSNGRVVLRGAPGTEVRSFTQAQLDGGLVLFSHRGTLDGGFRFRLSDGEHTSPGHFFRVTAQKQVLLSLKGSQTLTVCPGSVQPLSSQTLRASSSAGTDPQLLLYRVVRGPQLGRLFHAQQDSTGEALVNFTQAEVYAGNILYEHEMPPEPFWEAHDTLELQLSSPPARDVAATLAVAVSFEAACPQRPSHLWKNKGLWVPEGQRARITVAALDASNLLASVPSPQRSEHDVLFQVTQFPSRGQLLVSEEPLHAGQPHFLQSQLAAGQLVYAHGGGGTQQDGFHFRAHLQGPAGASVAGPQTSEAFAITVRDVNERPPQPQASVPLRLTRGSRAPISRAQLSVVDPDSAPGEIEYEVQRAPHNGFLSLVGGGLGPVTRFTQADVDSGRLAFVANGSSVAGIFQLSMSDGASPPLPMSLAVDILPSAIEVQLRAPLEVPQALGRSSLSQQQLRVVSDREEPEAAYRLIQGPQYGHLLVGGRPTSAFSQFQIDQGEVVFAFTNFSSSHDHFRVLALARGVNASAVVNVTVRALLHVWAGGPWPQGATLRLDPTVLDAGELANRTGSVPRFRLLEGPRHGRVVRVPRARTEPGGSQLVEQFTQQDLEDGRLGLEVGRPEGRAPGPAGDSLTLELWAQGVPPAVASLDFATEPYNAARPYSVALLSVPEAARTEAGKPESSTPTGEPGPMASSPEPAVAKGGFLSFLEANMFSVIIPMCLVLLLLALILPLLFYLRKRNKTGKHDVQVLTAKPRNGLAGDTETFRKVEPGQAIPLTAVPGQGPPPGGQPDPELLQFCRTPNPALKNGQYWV

B1: scFv C21: HMW-MAA-specific fully human scFv from semi-synthetic phage display library; VH SEQ ID NO: 5, VL SEQ ID NO: 6 (antibody, listed as Homo sapiens, V domains shown)
VH: QVQLVQSGAEVKKPGSSVKVSCKASGGTFSSYAISWVRQAPGQGLEWMGGIIPIFGTANYAQKFQGRVTITADESTSTAYMELSSLRSDDTAVYYCARALDPITFDSWGQGTLVTVSR
VL: SELTQDPAVSVALGQTVRITCQGDSLRSYYASWYQQKPGQAPVLVIYGKNNRPSGIPDRFSGSSSGNTASLTITGAQAEDEADYYCNSRDSSGNHVVFGGGTKLTVLGRS
modifications: scFv linker
Inhibition of binding of mAb VF1-TP34 to SK-MEL-28 cells: partially inhibited each other

— patent US9694061B2, “Fully human antibodies to high molecular weight-melanoma associated antigen and uses thereof” (University of Pittsburgh—Of the Commonwealth System of …, priority 2008, dated 2017)
